Measurements from patent US20140287419A1, “Compositions Having Dicamba Decarboxylase Activity and Methods of Use” (priority 2013, published 2014).

Assay: 14C assay with IPTG-induced recombinant E. coli cells (14CO2 capture from [14C]-carboxyl-labeled dicamba)
Settings: for Dicamba Decarboxylase Activity: IPTG-induced recombinant E. coli cells, [14C]-carboxyl-labeled dicamba, 14CO2 capture; for Enzymatic Detection level: dicamba decarboxylation activity of the protein of the given SEQ ID NO

Molecule	Dicamba Decarboxylase Activity	Enzymatic Detection level
106 (protein, listed as Pyrococcus horikoshii) MAGMKFIKNLHVSKLVIDSMKALINGTIYTSFNPLKKVSGLVISHGKVIYAGDSEVAKKIVELSGGEIVDLKGKYVMPAFFDSHLHLDELGMSLEMVDLRGAKSIEELIQRLKRGKGRIIFGFGWDQDELGEWPTRKELNAIDKPVFIYRKCFHVAVANDKMLELLNLTPSKDFDEDTGIIKEKSLEEARKVINERVLTVEDYVYYIKRAQEHLLDLGVKSVSFMSVNEKALRALFYLEREGKLSINVFAYVTPEVLDKLESIGLGRFQGNRLTIAGVKLFTDGSLGARTALLSKPYSDDPSTSGQLVMEREELIRITEKARSLGLDVAIHAIGDKALDVALDVFETTGFPGRIEHASLVRDDQLERVKNLKVRLSVQPHFIISDWWIVERVGEERVKWVYRFKDLMKVAELGFSTDSPIEPADPWLTVDAAVNRGKGKVKLYELTKDQALDIKDALHSYTYGSARVSLASDIGKLEPGFKAEYIILDRDPLVVK	No	No
104 (protein, Plasmodium Vivax) MANILQEPIDFLKKEELKNIDLSQMSKKERYKIWKRIPKCELHCHLDLCFSADFFVSCIRKYNLQPNLSDEEVLDYYLFAKGGKSLGEFVEKAIKVADIFHDYEVIEDLAKHAVFNKYKEGVVLMEFRYSPTFVAFKYNLDIELIHQAIVKGIKEVVELLDHKIHVALMCIGDTGHEAANIKASADFCLKHKADFVGFDHGGHEVDLKEYKEIFDYVRESGVPLSVHAGEDVTLPNLNTLYSAIQVLKVERIGHGIRVAESQELIDMVKEKNILLEVCPISNVLLKNAKSMDTHPIRQLYDAGVKVSVNSDDPGMFLTNINDDYEELYTHLNFTLEDFMKMNEWALEKSFMDSNIKDKIKNLYF	No	No
105 (protein, Deinococcus radiodurans) MAIDFHVHLDLYPDPVAVARACEERQLTVLSVTTTPAAWRGTLALAAGRPHVWTALGFHPEVVSERAADLPWFDRYLPETRFVGEVGLDGSPSLRGTWTQQFAVFQHILRRCEDHGGRILSIHSRRAESEVLNCLEANPRSGTPILHWYSGSVTELRRAISLGCWFSVGPTMVRTQKGAALIRSMPRDRVLTETDGPFLELDGQAALPWDVKSVVEGLSKIWQIPASEVERIVKENVSRLLGTVR	No	No
108 (protein, listed as Staphylococcus aureus) MAKSITFEEHYVIEDIQKETMNAISADPKGVPMKVMLEGLEKKTGFTNADELSHHDERIQFMNNQDVQIQVLSYGNGSPSNLVGQKAIELCQKANDQLANYIAQYPNRFVGFATLPINEPEAAAREFERCINDLGFKGALIMGRAQDGFLDQDKYDIIFKTAENLDVPIYLHPAPVNSDIYQSYYKGNYPEVTAATFACFGYGWHIDVGIHAIHLVLSGIFDRYPKLNMIIGHWGEFIPFFLERMDEALFAEHLNHSVSYYFKNSFYITPSGMLTKPQFDLVKKEVGIDRILYAADYPYIEPEKLGVFLDELGLTDEEKEKISYTNGAKLLGLSSNN	High	High
107 (protein, listed as Rhodopseudomonas palustris) MAIIDIHGHYTTAPKALEDWRNRQIAGIKDPSVMPKVSELKISDDELQASIIENQLKKMQERGSDLTVFSPRASFMAHHIGDFNVSSTWAAICNELCYRVSQLFPDNFIGAAMLPQSPGVDPKTCIPELEKCVKEYGFVAINLNPDPSGGHWTSPPLTDRIWYPIYEKMVELEIPAMIHVSTSCNTCFHTTGAHYLNADTTAFMQCVAGDLFKDFPELKFVIPHGGGAVPYHWGRFRGLAQEMKKPLLEDHVLNNIFFDTCVYHQPGIDLLNTVIPVDNVLFASEMIGAVRGIDPRTGFYYDDTKRYIEASTILTPEEKQQIYEGNARRVYPRLDAALKAKGK	No	No
